Laboratory results taken from patent US20190225662A1 (VIB VZW, published 2019).
Values belong to the binder of their own block, whether it stands above or below them.

B1: Sushi domain 1 of the GABAB1a receptor, purified (receptor)
chain: TSEGCQIIHPPWEGGIRYRGLTRDQVKAINFLPVDYEIEYVCRGEREVVGPKVRKCLANGSWTDMDTPSRCV
notes: also called Sushi 1; sushi1
B2: ExD-AcD fragment of APP695 (without Fc) (ligand)
chain: SVDSADAEEDDSDVWWGGADTDYADGGEDKVVEVAEEEEVADVEEEEADDDEDVEDGDEVEEEAEEPYEEATERTTSTATTTTTTTESVEEVVRVPTTAASTPD
notes: also called APP695 ExD-AcD fragment; sAPPα ExD-AcD
B3: sAPPα (Fc cleaved) (ligand)
chain: LEVPTDGNAGLLAEPQIAMFCGKLNMHMNVQNGKWESDPSGTKTCIGTKEGILQYCQEVYPELQITNVVEANQPVTIQNWCKRGRKQCKTHTHIVIPYRCLVGEFVSDALLVPDKCKFLHQERMDVCETHLHWHTVAKETCSEKSTNLHDYGMLLPCGIDKFRGVEFVCCPLAEESDSVDSADAEEDDSDVWWGGADTDYADGGEDKVVEVAEEEEVADVEEEEADDDEDVEDGDEVEEEAEEPYEEATERTTSTATTTTTTTESVEEVVRVPTTAASTPDAVDKYLETPGDENEHAHFQKAKERLEAKHRERMSQVMREWEEAERQAKNLPKADKKAVIQHFQEKVESLEQEAANERQQLVETHMARVEAMLNDRRRLALENYITALQAVPPRPHHVFNMLKKYVRAEQKDRQHTLKHFEHVRMVDPKKAAQIRSQVMTHLRVIYERMNQSLSLLYNVPAVAEEIQDEVDELLQKEQNYSDDVLANMISEPRISYGNDALMPSLTETKTTVELLPVNGEFSLDDLQPWHPFGVDSVPANTENEVEPVDARPAADRGLTTRPGSGLTNIKTEEISEVKMDAEFGHDSGFEVRHQK
notes: Made as an Fc fusion in HEK293 cells; also called soluble amyloid precursor protein α; purified sAPPα

Experiments:
[1] = target: B2; assay: ITC, sushi1 (300 µM) injected into ExD-AcD (30 µM)
Method: (§1) All ITC experiments were carried out on a MicroCal iTC200 system. For ITC experiments involving APP constructs expressed in HEK293 cells, the purified GABABR1a-Sushi1 domain, sAPPα, CuBDAcD, AcD and CuBD constructs were buffer-exchanged by size exclusion chromatography in 20 mM Na-HEPES pH 7.0, 150 mM NaCl supplemented with 5 mM CaCl2. Concentrated samples were diluted and degassed before the experiment at the concentrations reported in the Fig. legends. sAPP fragments (all of them at 30 μM) were placed in the MicroCal sample cell and matching buffer was placed in the reference cell. Sushi1 (300 μM) was in the syringe and was injected into the cell in a series of 1 μL injections at 25° C. All the datasets were subtracted with a reference data consisting of serial injections of Sushi 1 in the cell, containing buffer only under the same conditions. For ITC experiments involving synthetic APP peptides, the Sushi-1 protein was dialysed overnight to PBS buffer. The 17-mer peptide was resuspended in H2O:acetonitrile (5:1) at a stock concentration of 3 mM, and diluted in PBS to 300 uM. In order to avoid buffer-buffer mismatches, the same amount of H2O:acetonitrile mixture was also added when diluting the protein to a 30 uM concentration. The 9-mer peptide was resuspended in PBS. Titrations comprised 26×1.5 μL injections of peptide into the protein, with 90 s intervals. […]

[2] = target: B3; assay: ITC, Sushi1 (300 µM) injected into sAPPα (30 µM), 25° C.
Method: as §1

[3] = target: B1; assay: ITC, sushi1 (300 µM) injected into ExD-AcD (30 µM); N is the fitted stoichiometry on the Molar Ratio axis
Method: as §1

[4] = target: B1; assay: ITC with purified sushi 1
Method: as §1

[5] = target: B1; assay: ITC, peptide (300 uM) injected into Sushi-1 protein (30 uM), PBS; 17mer peptide, APP695 204-220
Method: as §1

[6] = target: B1; assay: ITC of the synthetic peptide with purified sushi 1 (peptide injected into the protein); N is the fitted stoichiometry
Method: as §1

[7] = target: B1; assay: ITC of the synthetic peptide … (211-220) with purified sushi 1
Method: as §1

[8] = target: B1; assay: ITC, sushi1 (300 µM) injected into sAPPα (30 µM); N is the fitted stoichiometry on the Molar Ratio axis
Method: as §1

Binder: B1
- Kd [1]: 621 nM
- Kd [2]: 431 nM

Binder: B2
- N [3]: 1.16
- molar ratio [4]: ~1

- Kd [5]: 810 nM
- N [6]: 0.72
Binder: DDSDVWWGGADTDYADG (also called 17AA stretch) [synthetic 17mer peptide, APP695 204-220AA]

- N [6]: 0.96
Binder: DDSDVWWGG (also called 204-212AA) [synthetic 9mer peptide, APP695 residues 204-212]

- binding result [7]: no binding
Binder: GGADTDYADG [synthetic peptide, APP695 residues 211-220]

Binder: B3
- N [8]: 1.12
